Experimental data: patent publication US6987004B1, “Genes integrating signal transduction pathways” (Massachusetts Institute of Technology, priority 1998, dated 2006)

System: Elk1
Experiment: Elk1 activation in 293T cells (PathDetect Elk1 transreporting system)
Assay type: cell-based
Conditions: for Activation of Elk1 by the GEF itself: 293T cells transfected with the GEF
Description: To determine the effect of CalDAG-GEFI on the Erk/MAP kinase cascade, Elk1 activation was measured in 293T cells transfected with CalDAG-GEFI or constitutively active H-Ras (RasV12), or both. 293T cells were transfected by SuperFect (Qiagen) as described in Gotoh, supra, with expression vectors for GST-tagged Ras family proteins and with those for various GEFs. Cells were labeled 24 hours after transfection with ^32Pi for 2 hr. In some experiments, cells were stimulated with either 10 μM A23187 or 1 μM phorbol-12-myristate-13-acetate (TPA) for 3 min. GST-tagged Ras family proteins were collected from cell lysates with glutathione Sepharose. Guanine nucleotides bound to Ras family proteins were separated by thin layer chromatography (TLC). Activation of Elk1 was examined by the PathDetect Elk1 transreporting system (Stratagene). 293T cells were transfected with pFR-Luc and pFA-Elk1 with various expression vectors, and light output was detected and analyzed by the use of LAS1000 film.

Row | Molecule | Activation of Elk1 by the GEF itself | Reduction of RasV12 activation of Elk1 (293T cells cotransfected with constitutively active H-Ras (RasV12))
1 | CalDAG-GEFII: guanine nucleotide exchange factor activating H-Ras and R-Ras; rat cDNA expressed in 293T cells (protein, left off: small tags and cut ends, rat cDNA expressed in 293T cells) MGTLGKAREAPRKPCHGSRAGPKGRLEAKSTNSPLPAQPSLAQITQFRMMVSLGHLAKGASLDDLIDSCIQSFDADGNLCRSNQLLQVMLTMHRIIISSAELLQKLMNLYKDALEKNSPGICLKICYFVRYWITEFWIMFKMDASLTSTMEEFQDLVKANGEESHCHLIDTTQINSRDWSRKLTQRIKSNTSKKRKVSLLFDHLEPEELSEHLTYLEFKSFRRISFSDYQNYLVNSCVKENPTMERSIALCNGISQWVQLMVLSRPTPQLRAEVFIKFIHVAQKLHQLQNFNTLMAVIGGLCHSSISRLKETSSHVPHEINKVLGEMTELLSSCRNYDNYRRAYGECTHFKIPILGVHLKDLISLYEAMPDYLEDGKVNVQKLLALYNHINELVQLQDVAPPLDANKDLVHLLTLSLDLYYTEDEIYELSYAREPRNHRAPPLTPSKPPVVVDWASGVSPKPDPKTISKHVQRMVDSVFKNYDLDQDGYISQEEFEKIAASFPFSFCVMDKDREGLISRDEITAYFMRASSIYSKLGLGFPHNFQETTYLKPTFCDNCAGFLWGVIKQGYRCKDCGMNCHKQCKDLVVFECKKRSKSPAVSTENISSVVPMSTLCPLGTKDLLHAPEEGSFIFQNGEVVDHSEESKDRTIMLLGVSSQKISVRLKRTVAHKTTQTESFPWVGGEMPPGHFVLTSPRKSAQGALYVHSPASPCPSPALVRKRAFVKWENKESLIKPKPELHLRLRTYQELEQEVNTLRADNDALKIQLKYAQKQIESLQLGKSNHVLAQMDHGDGT | increased the transcriptional activity of Elk1 | 
2 | CalDAG-GEFI: guanine nucleotide exchange factor with Ca2+ and DAG binding domains, substrate Rap1A; mouse cDNA expressed in 293T cells (protein) MASTLDLDKGCTVEELLRGCIEAFDDSGKVRDPQLVRMFLMMHPWYIPSSQLASKLLHFYQQSRKDNSNSLQVKTCHLVRYWVSAFPAEFDLNPELAEPIKELKALLDQEGNRRHSSLIDIESVPTYKWKRQVTQRNPVEQKKRKMSLLFDHLEPMELAEHLTYLEYRSFCKILFQDYHSFVTHGCTVDNPVLERFISLFNSVSQWVQLMILSKPTATQRALVITHFVHVAEKLLQLQNFNTLMAVVGGLSHSSISRLKETHSHVSPDTIKLWEGLTELVTATGNYSNYRRRLAACVGFRFPILGVHLKDLVALQLALPDWLDPGRTRLNGAKMRQLFSILEELAMVTSLRPPVQANPDLLSLLTVSLDQYQTEDELYQLSLQREPRSKSSPTSPTSCTPPPRPPVLEEWTSVAKPKLDQALVAEHIEKMVESVFRNFDVDGDGHISQEEFQIIRGNFPYLSAFGDLDQNQDGCISREEMISYFLRSSSVLGGRMGFVHNFQESNSLRPVACRHCKALILGIYKQGLKCRACGVNCHKQCKDRLSVECRRRAQSVSLEGSAPSPSPTHTHHRAFSFSLPRPGRRSSRPPEIREEEVQTVEDGVFDIHL | did not itself activate Elk1 | approximately 4 fold
